Target: _(SUMO)BMC-HRmm (SUMOylated BMC-H protein of Mycobacterium smegmatis) (Mycobacterium smegmatis)
Test: SEC

“_(SUMO)BMC-HRmm (SUMOylated BMC-H protein of Mycobacterium smegmatis) (natural protein)” showed a stoichiometry N of 6.

From paper PMC6309364
